According to US20040086863A1:

How the values were obtained:
[1] = biological target: IRS-1, endogenous in Rat-1 fibroblasts and L6GLUT4myc myoblasts (UniProt P35570); experiment: cell-based or functional assay
[2] = biological target: IRS-1, endogenous in COS cells; experiment: cell-based or functional assay
IRS-1, endogenous in COS cells, sequence (Q28224 whole entry): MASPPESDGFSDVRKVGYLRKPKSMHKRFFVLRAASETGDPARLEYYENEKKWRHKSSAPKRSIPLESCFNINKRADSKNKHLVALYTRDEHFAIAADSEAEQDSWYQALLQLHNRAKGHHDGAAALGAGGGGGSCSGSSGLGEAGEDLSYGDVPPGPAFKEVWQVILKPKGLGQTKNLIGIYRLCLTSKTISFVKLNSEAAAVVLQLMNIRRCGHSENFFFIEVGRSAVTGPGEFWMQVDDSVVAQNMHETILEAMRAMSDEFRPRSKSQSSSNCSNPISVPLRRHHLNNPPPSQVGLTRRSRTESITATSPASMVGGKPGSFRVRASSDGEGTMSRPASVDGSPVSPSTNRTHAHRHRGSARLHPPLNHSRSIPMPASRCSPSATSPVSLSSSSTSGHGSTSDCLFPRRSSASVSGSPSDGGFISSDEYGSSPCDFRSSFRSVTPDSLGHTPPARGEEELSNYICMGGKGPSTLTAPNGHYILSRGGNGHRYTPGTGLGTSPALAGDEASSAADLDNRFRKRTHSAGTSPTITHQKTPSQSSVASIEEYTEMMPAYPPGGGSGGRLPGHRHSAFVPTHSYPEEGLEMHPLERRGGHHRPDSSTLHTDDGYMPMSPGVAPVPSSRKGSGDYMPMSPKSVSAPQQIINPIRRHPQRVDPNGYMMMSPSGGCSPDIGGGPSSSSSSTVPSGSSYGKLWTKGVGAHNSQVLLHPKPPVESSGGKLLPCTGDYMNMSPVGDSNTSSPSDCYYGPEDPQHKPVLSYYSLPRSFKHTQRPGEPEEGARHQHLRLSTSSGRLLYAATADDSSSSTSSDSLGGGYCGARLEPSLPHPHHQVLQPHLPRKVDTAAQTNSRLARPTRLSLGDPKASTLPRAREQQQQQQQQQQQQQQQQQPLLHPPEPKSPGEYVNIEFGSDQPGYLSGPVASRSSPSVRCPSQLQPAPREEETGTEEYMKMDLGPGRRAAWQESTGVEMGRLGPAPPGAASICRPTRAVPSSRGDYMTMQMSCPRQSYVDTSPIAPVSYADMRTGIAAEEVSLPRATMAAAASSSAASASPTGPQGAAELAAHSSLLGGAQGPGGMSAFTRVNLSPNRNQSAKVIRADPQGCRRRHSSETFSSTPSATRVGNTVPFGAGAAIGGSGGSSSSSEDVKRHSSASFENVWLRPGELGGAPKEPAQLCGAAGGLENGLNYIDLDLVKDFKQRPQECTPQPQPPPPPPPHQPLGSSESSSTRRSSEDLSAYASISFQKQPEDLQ

IRS-1, endogenous in Rat-1 fibroblasts and L6GLUT4myc myoblasts, sequence (P35570 whole entry): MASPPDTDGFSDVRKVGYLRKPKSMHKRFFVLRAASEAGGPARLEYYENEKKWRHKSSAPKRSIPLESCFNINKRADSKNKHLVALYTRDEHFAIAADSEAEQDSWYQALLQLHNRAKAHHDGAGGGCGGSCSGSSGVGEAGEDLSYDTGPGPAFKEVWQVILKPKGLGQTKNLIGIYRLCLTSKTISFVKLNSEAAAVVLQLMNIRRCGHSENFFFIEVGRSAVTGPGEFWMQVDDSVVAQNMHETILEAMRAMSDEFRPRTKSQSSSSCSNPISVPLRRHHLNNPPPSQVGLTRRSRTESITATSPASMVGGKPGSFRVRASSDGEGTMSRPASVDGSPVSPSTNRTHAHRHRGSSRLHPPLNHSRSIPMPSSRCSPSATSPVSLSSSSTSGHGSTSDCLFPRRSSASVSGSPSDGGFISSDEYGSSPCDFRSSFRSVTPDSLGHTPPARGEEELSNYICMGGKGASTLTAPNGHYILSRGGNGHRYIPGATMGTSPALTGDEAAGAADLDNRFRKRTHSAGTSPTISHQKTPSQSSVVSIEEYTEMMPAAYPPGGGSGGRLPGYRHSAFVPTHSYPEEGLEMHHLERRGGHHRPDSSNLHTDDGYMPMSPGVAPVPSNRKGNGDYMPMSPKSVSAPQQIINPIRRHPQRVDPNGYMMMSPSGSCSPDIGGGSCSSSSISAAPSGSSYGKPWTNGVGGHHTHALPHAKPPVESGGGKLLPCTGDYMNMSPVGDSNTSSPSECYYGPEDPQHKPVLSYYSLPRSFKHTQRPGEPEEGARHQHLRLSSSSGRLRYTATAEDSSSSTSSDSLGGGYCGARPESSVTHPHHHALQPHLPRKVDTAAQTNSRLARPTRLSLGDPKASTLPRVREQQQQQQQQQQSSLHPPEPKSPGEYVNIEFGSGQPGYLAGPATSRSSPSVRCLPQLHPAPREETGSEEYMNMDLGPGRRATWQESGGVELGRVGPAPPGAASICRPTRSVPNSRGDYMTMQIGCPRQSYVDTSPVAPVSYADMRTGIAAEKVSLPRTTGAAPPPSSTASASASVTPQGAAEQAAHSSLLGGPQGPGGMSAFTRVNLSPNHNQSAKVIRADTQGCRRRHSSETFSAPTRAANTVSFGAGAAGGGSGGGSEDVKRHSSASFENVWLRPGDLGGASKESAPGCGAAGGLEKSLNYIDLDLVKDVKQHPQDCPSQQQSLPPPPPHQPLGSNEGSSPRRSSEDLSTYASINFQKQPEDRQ

insulin-dependent GLUT4myc membrane translocation in L6GLUT4myc myoblasts [1]: > 90% | IRS-1 tyrosine phosphorylation in insulin-treated cells [2]: > 5 fold
Substance: HA-tagged dominant-negative PHIP (DN-PHIP), PHIP PBR region alone (residues 8-209) (from UniProt Q8VDD9 927-1128)
